# Results reported in patent publication US20240182536A1 (MURAL ONCOLOGY, published 2024).
# Columns and labels:
# [1] = molecular target: T1, IL-18 binding protein (IL-18BP) (UniProt O95998 31-194); test: cell-based or functional assay
# T1 sequence (looked up): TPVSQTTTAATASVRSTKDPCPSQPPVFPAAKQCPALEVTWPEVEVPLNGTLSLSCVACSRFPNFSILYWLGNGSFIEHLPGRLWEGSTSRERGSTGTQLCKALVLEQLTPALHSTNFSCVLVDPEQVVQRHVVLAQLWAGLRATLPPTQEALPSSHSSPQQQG
# [2] = molecular target: T2, IL-18 receptors on HEK-Blue IL-18 reporter cells (UniProt Q13478 19-541; O95256 20-599, limits assumed); test: cell-based or functional assay
# T2 sequence (looked up) 1: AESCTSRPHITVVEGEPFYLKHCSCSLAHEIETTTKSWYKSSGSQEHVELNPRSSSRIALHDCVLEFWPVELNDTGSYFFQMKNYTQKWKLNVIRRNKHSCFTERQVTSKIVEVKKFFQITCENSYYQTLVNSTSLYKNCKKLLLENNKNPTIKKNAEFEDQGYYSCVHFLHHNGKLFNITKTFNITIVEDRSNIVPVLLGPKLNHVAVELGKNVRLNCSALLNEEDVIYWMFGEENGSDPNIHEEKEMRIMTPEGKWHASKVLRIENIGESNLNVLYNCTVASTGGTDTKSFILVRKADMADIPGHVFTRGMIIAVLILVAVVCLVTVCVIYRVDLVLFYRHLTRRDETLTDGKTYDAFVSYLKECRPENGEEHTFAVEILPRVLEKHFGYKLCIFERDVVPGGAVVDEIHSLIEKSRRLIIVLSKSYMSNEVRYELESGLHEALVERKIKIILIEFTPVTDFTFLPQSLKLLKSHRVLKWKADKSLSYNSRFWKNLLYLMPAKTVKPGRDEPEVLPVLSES
# T2 sequence (looked up) 2: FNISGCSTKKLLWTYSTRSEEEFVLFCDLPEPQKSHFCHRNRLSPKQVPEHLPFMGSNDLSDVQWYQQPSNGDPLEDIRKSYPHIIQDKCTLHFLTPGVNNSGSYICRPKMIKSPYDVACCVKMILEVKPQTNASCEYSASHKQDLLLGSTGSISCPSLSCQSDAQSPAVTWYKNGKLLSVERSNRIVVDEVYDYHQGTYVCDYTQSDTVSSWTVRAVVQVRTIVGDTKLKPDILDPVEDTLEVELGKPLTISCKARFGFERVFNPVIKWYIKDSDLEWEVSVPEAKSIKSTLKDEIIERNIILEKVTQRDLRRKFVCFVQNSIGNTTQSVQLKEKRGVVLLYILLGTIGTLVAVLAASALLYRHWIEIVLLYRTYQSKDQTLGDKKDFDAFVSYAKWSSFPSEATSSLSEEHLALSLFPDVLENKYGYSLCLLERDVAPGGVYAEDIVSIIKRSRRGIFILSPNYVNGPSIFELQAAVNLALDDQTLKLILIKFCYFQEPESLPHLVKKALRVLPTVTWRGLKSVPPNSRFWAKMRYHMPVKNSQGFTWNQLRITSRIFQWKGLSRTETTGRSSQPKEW
Binder,"Activity, +100 nM BP, DF-1000002 [1]","Activity, +100 nM BP, DF-5000003 [1]","Activity, +100 nM BP, DF-25000004 [1]","Ratio (-BP/+BP), DF-1000005 [1]","Ratio (-BP/+BP), DF-5000006 [1]","Ratio (-BP/+BP), DF-25000007 [1]","Activity, No BP, DF-100000 [2]","Activity, No BP, DF-500000 [2]","Activity, No BP, DF-2500000 [2]"
"IL-18 variant G3L, E6Y, D54T, T63S, N91Y, R104Q (ligand) YFLKLYSKLSVIRNLNDQVLFIDQGNRPLFEDMTDSDMRDNAPRTIFIISMYKTSQPRGMAVSISVKSEKISTLSSENKIISFKEMNPPDYIKDTKSDIIFFQQSVPGHDNKMQFESSSYEGYFLASEKERDLFKLILKKEDELGDRSIMFTVQNED",2.04,1.92,1.45,1.05,1.05,1.17,2.14,2.02,1.69
"IL-18 variant G3P, E6K, D54Y, S55P, Q56H, T63S, N91S, R104Q (ligand) YFPKLKSKLSVIRNLNDQVLFIDQGNRPLFEDMTDSDMRDNAPRTIFIISMYKYPHPRGMAVSISVKSEKISTLSSENKIISFKEMNPPDSIKDTKSDIIFFQQSVPGHDNKMQFESSSYEGYFLASEKERDLFKLILKKEDELGDRSIMFTVQNED",1.69,1.08,0.54,0.96,1.02,0.98,1.63,1.1,0.53
"IL-18 variant G3D, E6G, K53G, D54A, T63S, N91Y, R104Q (ligand) YFDKLGSKLSVIRNLNDQVLFIDQGNRPLFEDMTDSDMRDNAPRTIFIISMYGASQPRGMAVSISVKSEKISTLSSENKIISFKEMNPPDYIKDTKSDIIFFQQSVPGHDNKMQFESSSYEGYFLASEKERDLFKLILKKEDELGDRSIMFTVQNED",1.33,0.73,0.19,1.02,0.98,1.14,1.36,0.72,0.21
"IL-18 variant G3P, E6H, N91L (ligand) YFPKLHSKLSVIRNLNDQVLFIDQGNRPLFEDMTDSDMRDNAPRTIFIISMYKDSQPRGMAVTISVKSEKISTLSSENKIISFKEMNPPDLIKDTKSDIIFFQRSVPGHDNKMQFESSSYEGYFLASEKERDLFKLILKKEDELGDRSIMFTVQNED",1.52,0.93,0.33,0.95,0.97,0.87,1.45,0.9,0.29
"IL-18 variant G3P, E6K, D54Y, S55P, T63S, N91S, R104Q, Q154R (ligand) YFPKLKSKLSVIRNLNDQVLFIDQGNRPLFEDMTDSDMRDNAPRTIFIISMYKYPQPRGMAVSISVKSEKISTLSSENKIISFKEMNPPDSIKDTKSDIIFFQQSVPGHDNKMQFESSSYEGYFLASEKERDLFKLILKKEDELGDRSIMFTVRNED",1.51,0.81,0.39,0.99,1.16,0.93,1.49,0.94,0.36
"IL-18 variant G3Q, E6Q, K53T, D54W, S55F, N91Y (ligand) YFQKLQSKLSVIRNLNDQVLFIDQGNRPLFEDMTDSDMRDNAPRTIFIISMYTWFQPRGMAVTISVKSEKISTLSSENKIISFKEMNPPDYIKDTKSDIIFFQRSVPGHDNKMQFESSSYEGYFLASEKERDLFKLILKKEDELGDRSIMFTVQNED",1.14,0.45,0.14,1.08,1.21,1.2,1.23,0.54,0.17
"IL-18 variant G3P, E6K, D54Y, S55P, T63S, N91S, R104Q (ligand) YFPKLKSKLSVIRNLNDQVLFIDQGNRPLFEDMTDSDMRDNAPRTIFIISMYKYPQPRGMAVSISVKSEKISTLSSENKIISFKEMNPPDSIKDTKSDIIFFQQSVPGHDNKMQFESSSYEGYFLASEKERDLFKLILKKEDELGDRSIMFTVQNED",1.8,1.35,0.77,0.97,0.97,0.93,1.75,1.32,0.72
"IL-18 variant G3P, E6H, D54A, S55P, Q56K, T63S, N91M (ligand) YFPKLHSKLSVIRNLNDQVLFIDQGNRPLFEDMTDSDMRDNAPRTIFIISMYKAPKPRGMAVSISVKSEKISTLSSENKIISFKEMNPPDMIKDTKSDIIFFQRSVPGHDNKMQFESSSYEGYFLASEKERDLFKLILKKEDELGDRSIMFTVQNED",1.24,0.61,0.19,0.97,1.03,0.9,1.2,0.63,0.17
"IL-18 variant G3Q, E6H, K53T, D54S, S55Y, N91Y, R104K (ligand) YFQKLHSKLSVIRNLNDQVLFIDQGNRPLFEDMTDSDMRDNAPRTIFIISMYTSYQPRGMAVTISVKSEKISTLSSENKIISFKEMNPPDYIKDTKSDIIFFQKSVPGHDNKMQFESSSYEGYFLASEKERDLFKLILKKEDELGDRSIMFTVQNED",1.48,0.88,0.29,1.03,1.08,1.08,1.52,0.95,0.31
"IL-18 variant G3L, E6S, D54T, T63S, N91Y, R104Q (ligand) YFLKLSSKLSVIRNLNDQVLFIDQGNRPLFEDMTDSDMRDNAPRTIFIISMYKTSQPRGMAVSISVKSEKISTLSSENKIISFKEMNPPDYIKDTKSDIIFFQQSVPGHDNKMQFESSSYEGYFLASEKERDLFKLILKKEDELGDRSIMFTVQNED",2.06,1.95,1.44,1.02,1.02,1.2,2.11,1.98,1.73
